The target in the assay is T1, GST C-terminal (Myo9a amino acids 2330-2626 fused to GST) (rat, UniProt Q9Z1N3 2330-2626).
T1 construct: Myosin IXa (Myo9a), rat, NCBI AJ001713, amino acids 2330-2626 (C-terminus); Cloned into pGEX-4T1; also called Myo9a GST C-term; Myo9a C-terminus; source: E. coli BL21, purified, immobilized on glutathione-Sepharose 4B beads
T1 sequence (looked up): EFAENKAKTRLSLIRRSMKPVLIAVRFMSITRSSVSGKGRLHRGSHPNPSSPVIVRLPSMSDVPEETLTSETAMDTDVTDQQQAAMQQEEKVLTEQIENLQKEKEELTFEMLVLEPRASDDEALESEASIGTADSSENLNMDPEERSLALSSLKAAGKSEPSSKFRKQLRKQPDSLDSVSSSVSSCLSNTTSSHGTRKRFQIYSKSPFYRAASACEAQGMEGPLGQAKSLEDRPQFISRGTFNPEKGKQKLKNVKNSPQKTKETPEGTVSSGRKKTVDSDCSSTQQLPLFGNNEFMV
Kind of assay: pull-down; purified GluA2 C-term (released from GST by thrombin, in PBS) incubated with glutathione Sepharose 4B-coupled GST or GST C-term from Myo9a; immunoblot. Conditions: both partners purified. In general terms: A western blot detects proteins with antibodies after separation by electrophoresis.

B1: GluA2 C-term (GluA2 intracellular C-terminal tail, amino acids 834-883, released from GST by thrombin) (domain or fragment, rat, UniProt P19491 834-883, looked up)
chain: EFCYKSRAEAKRMKVAKNPQNINPSSSQNSQNFATYKEGYNVYGIESVKI
notes: AMPA receptor subunit GluA2, rat, NCBI M85035, intracellular C-terminal tail, amino acids 834-883; Cloned into pGEX-4T1; also called purified GluA2 C-terminus; GluA2 C-terminal tail; source: E. coli BL21, purified with glutathione-Sepharose 4B resin, released by thrombin
With B1, the binding result is “binds”.

These data come from paper PMC4719083, “Myosin IXa Binds AMPAR and Regulates Synaptic Structure, LTP, and Cognitive Function” (Frontiers in Molecular Neuroscience, 2016).
